From patent US20130253173A1 (Novo Nordisk, published 2013)
Each block holds one binder with its values, some of them ahead of it.

Columns and labels:
[1] = biological target: T1, truncated TFPI (1-239) (human, UniProt P10646 29-267); assay: binding of TFPI variants to anti-TFPI MAbs relative to TFPI-WT (=1.0); ELISA or ForteBio with HEK293-F conditioned medium, Example 7
T1 construct: Expressed in HEK293-F cells; conditioned medium used
T1 sequence: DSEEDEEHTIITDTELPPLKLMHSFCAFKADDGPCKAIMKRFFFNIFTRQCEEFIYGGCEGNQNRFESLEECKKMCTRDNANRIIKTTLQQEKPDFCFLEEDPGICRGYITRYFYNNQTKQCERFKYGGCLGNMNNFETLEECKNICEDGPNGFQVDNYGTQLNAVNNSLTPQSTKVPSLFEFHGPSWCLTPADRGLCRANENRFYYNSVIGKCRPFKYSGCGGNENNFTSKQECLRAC
Experimental: (§1) The effect of truncating the C-terminal tail of TFPI on TFPI's binding affinity to MuTFPI22F66, MuTFPI22F71, MuTFPI22F74, MuTFPI22F79 and MuTFPI22F132 was analyzed by means of ELISA, or real-time binding analysis, using the ForteBio platform. […] The ELISAs, or the real-time binding analyses, were carried out using the conditioned medium from the cell cultures.
(§2) The concentrations of wt TFPI and truncated TFPI mutants in the conditioned medium were estimated by means of an ELISA that binds TFPI K1-K2 (Goat anti-TFPI, in-house) and K2 (MAb4F36, in-house). The binding to these antibodies is not affected by the truncations. Alternatively, biotin-labelled MAb4F36 was captured on streptavidin coated BioSensor tips (ForteBio) and used for concentration estimations.
(§3) In the ELISA setting, the effect of the mutations on TFPI's ability to bind to MuTFPI22F66, MuTFPI22F71, MuTFPI22F74, MuTFPI22F79 or MuTFPI22F132 was analyzed using each of the listed MAbs as capturing antibody and using MAb4F36 for detection. Direct binding of TFPI variants to biotin-labelled MuTFPI22F66, MuTFPI22F71, MuTFPI22F74, MuTFPI22F79, and MuTFPI22F132, captured on streptavidin coated BioSensor tips (ForteBio), was measured using the ForteBio platform.

[2] = biological target: T2, Rabbit TFPI (rabbit, UniProt P19761 25-300, limits assumed); assay: SPR (Biacore 3000), mAb captured on immobilised anti-mouse IgG, TFPI in solution, 1:1 model
T2 sequence (looked up): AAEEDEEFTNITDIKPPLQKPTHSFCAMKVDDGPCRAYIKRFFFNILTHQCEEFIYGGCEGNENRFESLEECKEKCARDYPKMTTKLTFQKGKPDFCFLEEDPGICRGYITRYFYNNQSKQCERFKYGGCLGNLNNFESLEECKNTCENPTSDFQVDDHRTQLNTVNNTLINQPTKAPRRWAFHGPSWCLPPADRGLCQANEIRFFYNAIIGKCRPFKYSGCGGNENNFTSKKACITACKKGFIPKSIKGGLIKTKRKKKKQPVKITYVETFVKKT
Experimental: (§4) Binding interaction analysis was obtained by Surface Plasmon Resonance in a Biacore 3000. Capture of the relevant monoclonal antibody at a fixed concentration was obtained with immobilised mouse anti-IgG. Different concentrations of TFPI were tested. Determination of binding constants (kₒₙ, koff, KD) was obtained assuming a 1:1 interaction of TFPI and the antibody of interest.

[3] = biological target: T3, full length human TFPI (human, UniProt P10646 29-304); assay: as above
T3 construct: also called wild type (wt) TFPI; TFPI Fl
T3 sequence: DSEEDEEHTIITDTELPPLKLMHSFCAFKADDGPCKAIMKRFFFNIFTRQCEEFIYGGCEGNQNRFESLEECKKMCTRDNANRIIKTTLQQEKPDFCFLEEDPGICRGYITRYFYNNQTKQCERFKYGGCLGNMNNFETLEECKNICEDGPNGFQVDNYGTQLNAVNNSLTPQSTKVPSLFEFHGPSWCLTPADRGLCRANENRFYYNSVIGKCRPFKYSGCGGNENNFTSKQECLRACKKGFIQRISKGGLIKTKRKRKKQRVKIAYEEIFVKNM
Experimental: as §4

[4] = biological target: T4, truncated TFPI (1-240) (human, UniProt P10646 29-268); assay: binding of TFPI variants to anti-TFPI MAbs relative to TFPI-WT (=1.0); ELISA or ForteBio with HEK293-F conditioned medium, Example 7
T4 construct: Expressed in HEK293-F cells; conditioned medium used
T4 sequence: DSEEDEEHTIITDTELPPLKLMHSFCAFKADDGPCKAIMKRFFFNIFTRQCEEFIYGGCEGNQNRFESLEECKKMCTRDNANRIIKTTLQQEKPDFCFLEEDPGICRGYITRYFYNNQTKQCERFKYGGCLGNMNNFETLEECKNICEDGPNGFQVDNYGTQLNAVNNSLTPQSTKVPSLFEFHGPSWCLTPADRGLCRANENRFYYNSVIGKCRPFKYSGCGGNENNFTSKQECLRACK
Experimental: as §1, §2, §3

binding result [1]: no binding
Kd [2]: 0.18 nM
Kd [3]: 0.8 nM
B1: MuTFPI22F71 (antibody, mouse IgG1, V domains shown)
VH: EVQLQQSGTVLARPGASVKMSCKASGYSFTTYWIHWVKQRPGQGLEWIGAIDPGNSDATYSQKFKDKAKLTAVTSASTAFMELNSLTNDDSAVYYCSREVYYGYDGDYFDYWGQGTTLTVSS
VL: DIVLTQSPASLAVSLGQRATISCRASESVSVHGTHLMHWYQQKPGQPPKLLIYAASKLESGVPARFSGSGSETDFTLNIHPVEEEDAATYFCQQSIGDPWTFGGGTKLEIKR
notes: also called anti-TFPI22F71

binding result [1]: no binding
binding result [4]: no binding
Kd [2]: 3.76 nM
Kd [3]: 0.6 nM
B2: MuTFPI22F66 (antibody, mouse IgG1, V domains shown)
VH: EVQLQQSGPELVKPGASMKISCKASGYSFTGYPMNWVRQSHGKNLEWIGLINPYNGDTTFNQKFKGKATLTVDKSSSTAYMELLSLTSEDSAVYYCARGTYEYVDYWGQGTTLTVSS
VL: QIVLTQSPTIMSASPGERVTMTCSASSSVFYMHWYQQKPGSSPRLLIYDTSILSSGVPVRFSGSGSGTSYSLTIRRMEAEDAATYYCQQWSSYPLTFGAGTKLELKR
notes: also called anti-TFPI22F66

Kd [3]: 0.002 nM
B3: MuTFPI4F110 (antibody, mouse IgG1, V domains shown)
VH: QVQLQQSGAELVKPGASVKLSCKASGYTFISYYMYWVKQRPGQGLEWIGEINPSNGDTNLNEKFKSKATLTVDKSSSTVYMQLSSLTSEDSAVYYCTRWDRFDGFVYWGQGTLVTVSA
VL: ETTVTQSPASLSMAIGGKVTIRCIISTNIDDDINWYQQKPGEPPKLLISEGNTLRPGVPSRFSSSGYGTDFVFTIENMLSEDVADYYCLQSDDLPYTFGGGTKLEIKR
notes: also called anti-TFPI4F110; mAb 4F110
